Assay [1] addresses T1, Ab-1.
T1 construct: also called anti-CD28 scFv harbored in Ab-1
As to the kind of experiment: BLI (Octet), 200 nM peptide, 100 nM Ab-1. A general note: In BLI a coated tip is dipped into the sample, and binding shifts an interference pattern.

For assay [2], the target named is T1, Ab-1. As to the kind of experiment: binding ELISA, peptide captured, Ab-1 titrated. In general terms: ELISA stands for enzyme-linked immunosorbent assay.
For assay [3], the target named is T1, Ab-1. As to the kind of experiment: BLI (Octet), peptide on sensor, Ab-1 titrated, 1:1 model.
Assay [4] addresses T1, Ab-1. As to the kind of experiment: competition ELISA, peptide titrated vs 1 nM Ab-1 binding plate-bound CD28.
The target in assay [5] is T2, Peptide-39 (cysteine pairing not given here; also: biotinylated, site not given here).
T2 construct: synthetic peptide
T2 peptide: YCAGHAWQYINKCL
Nature of the assay: BLI, peptide on sensor, Fab in solution, 1:1 model.

The target of assay [6] is T3, Peptide-72 (cysteine pairing not given here; also: biotinylated, site not given here).
T3 construct: optimization library of Peptide-39
T3 peptide: YCEGHLPEYIEKCL
Nature of the assay: BLI, peptide on sensor, Fab in solution, 1:1 model.

Assay [7] concerns the target T4, Peptide-73 (cysteine pairing not given here; also: biotinylated, site not given here).
T4 construct: optimization library of Peptide-39
T4 peptide: YCEGHAPEYIAKCL
As to the kind of experiment: BLI, peptide on sensor, Fab in solution, 1:1 model.

Assay [8] deals with T5, Peptide-78 (cysteine pairing not given here; also: biotinylated, site not given here).
T5 construct: optimization library of Peptide-39
T5 peptide: YCEGHLPEYREKCL
As to the kind of experiment: BLI, peptide on sensor, Fab in solution, 1:1 model.

In assay [9] the target is T6, Peptide-79 (cysteine pairing not given here; also: biotinylated, site not given here).
T6 construct: optimization library of Peptide-39
T6 peptide: YCEGHLPEYLAKCL
As to the kind of experiment: BLI, peptide on sensor, Fab in solution, 1:1 model.

Assay [10] concerns the target T7, Peptide-84 (cysteine pairing not given here; also: biotinylated, site not given here).
T7 construct: optimization library of Peptide-39
T7 peptide: YCEGHLPEYRNKCL
Nature of the assay: BLI, peptide on sensor, Fab in solution, 1:1 model.

The target in assay [11] is T8, Peptide-86 (cysteine pairing not given here; also: biotinylated, site not given here).
T8 construct: optimization library of Peptide-39
T8 peptide: YCEGHLPEYIQKCL
Nature of the assay: BLI, peptide on sensor, Fab in solution, 1:1 model.

For assay [12], the target named is T9, anti-CD28 scFv (SEQ ID NO: 35).
T9 construct: also called anti-CD28 scFv wt Vh-linker-Vl; human anti-CD28 scFv
Nature of the assay: BLI (Octet).

Assay [13] concerns the target T10, anti-CD28 scFv (SEQ ID NO: 35).
T10 construct: also called anti-CD28 scFv wt Vh-linker-Vl
Nature of the assay: phage binding ELISA, scFv on plate, CD28 as competitor.

Assay [14] concerns the target T11, anti-CD28 scFv wt Vh-linker-Vl (biotinylated (site not stated)).
T11 construct: captured on neutravidin plates
Nature of the assay: phage ELISA on captured scFv, CD28 as competitor.

The target of assay [15] is T1, Ab-1. As to the kind of experiment: BLI (Octet), 20 nM peptide, 100 nM Ab-1.
Assay [16] deals with T1, Ab-1. Nature of the assay: BLI (Octet), 200 nM peptide, 100 nM Ab-1. The source holds these as a separate data set.
Assay [17] concerns the target T1, Ab-1. Nature of the assay: binding ELISA, peptide captured, Ab-1 titrated. The source holds these as a separate data set.
In assay [18] the target is T12, anti-CD28 Fab (SEQ ID NOs: 202, 203).
T12 construct: biotinylated when captured in the phage ELISAs
Nature of the assay: binding ELISA, peptide captured, anti-CD28 Fab titrated.

In assay [19] the target is T1, Ab-1. Nature of the assay: BLI (Octet), peptide on sensor, Ab-1 titrated, 1:1 model. This is another data set of the same source.
In assay [20] the target is T1, Ab-1. As to the kind of experiment: competition ELISA, peptide titrated vs 1 nM Ab-1 binding plate-bound CD28. This is another data set of the same source.

As usually defined, the EC50 is the midpoint of the concentration-response curve. Low readings indicate higher potency in that assay, high ones lower potency in that assay. Usually Kd stands for the constant that tells how readily two partners part at equilibrium. Read a high Kd as a looser complex. One may read the IC50 as the concentration that inhibits the measured activity by half. Higher therefore signals weaker potency in that assay. A word on the koff: it is the rate constant with which the complex falls apart. Read a high koff as a short-lived complex. One may read the kon as the second-order rate constant of association. Low readings indicate slower complex formation, high ones faster complex formation. What is called t½ is the time needed for the level to fall by half in the phase considered. Read a low t½ as fast loss.

Where two headings read alike, the source gives them in different places. No end group written: not given here.

For the molecule IDWCPRYLWDECYN (cysteine pairing not given here; also: biotinylated, site not given here) [Peptide-23], the “Octet signal (200 nM peptide)” value in assay [1] was 1.52. Also, in [2], the EC50 stood at 2.1 nM. Also, in assay [3], the affinity, expressed as Kd, was 16 nM and the t1/2 was 546 s. For the same molecule, in assay [4], the half-maximal inhibitory concentration (IC50) stood at 140 nM.

B1: anti-CD28 Fab (Fab, V domains shown)
VH: QVQLVQSGAEVKKPGASVKVSCKASGYTFTSYYIHWVRQAPGQGLEWIGSIYPGNVNTNYNEKFKDRATLTVDTSISTAYMELSRLRSDDTAVYFCTRSHYGLDWNFDVWGQGTTVTVSS
VL: not shown
For B1, the Kd in [5] was 2020 nM; in assay [6] it was 926 nM; in assay [7] it was 831 nM; in assay [8], 141 nM; in assay [9] it was 44.7 nM; in [10], 110 nM. This molecule returned a Kd in [11] of 40.2 nM. For the same molecule, the koff is 0.0202 s⁻¹ in assay [5]; 0.0239 s⁻¹ in assay [6]; 0.028 s⁻¹ in [7]; 0.0191 s⁻¹ in [8]; 0.0118 s⁻¹ in [9]; 0.0138 s⁻¹ in assay [10]. This molecule also displayed a koff in [11] of 0.0115 s⁻¹. Also, the kon in [5] was found to be 10000 M⁻¹ s⁻¹; in [6], 25800 M⁻¹ s⁻¹; in assay [7] it was 33700 M⁻¹ s⁻¹; in assay [8] it was 135000 M⁻¹ s⁻¹; in assay [9] it was 264000 M⁻¹ s⁻¹; in [10], 125000 M⁻¹ s⁻¹. Besides, the kon in assay [11] was 286000 M⁻¹ s⁻¹. The “t½” value amounted to 36 s in [5]; 30 s in assay [6]; 24 s in assay [7]; 36 s in [8]; 60 s in [9]; 48 s in assay [10]. Also, the “t½” value in [11] stood at 60 s.

In the case of GYCHYWGDMVMWCG (cysteine pairing not given here; also: biotinylated, site not given here, biotinylated for capture in BLI) [Peptide-118], the binding result in assay [12] is reported as “binds”.

As for IHLCHWVPWIKCSH [Phage-1664], the “CD28 scFv signal in presence of CD28” value in assay [13] is 2.51.

Take IDWCPTAGWTYCWF [Phage-1513]: in [14], the “CD28 scFv signal in presence of CD28” value stood at 0.075.

In the case of MDWCPRDLWVHCFA (cysteine pairing not given here; also: biotinylated, site not given here) [Peptide-1], the “Octet signal (20 nM peptide)” value in assay [15] worked out at 0.509. The same molecule yielded an Octet signal in assay [16] of 2.03. Also, the t1/2 in assay [16] was found to be 588 s; in assay [19], 930 s. In assay [1], the “Octet signal (200 nM peptide)” value was 1.8. Besides, the concentration for a half-maximal effect (EC50) came to 4 nM in assay [17], 1 nM in [2] and 490 nM in assay [18]. The molecule also gave a Kd in assay [19] of 15.1 nM. Further, the IC50 in assay [20] came to 60 nM; in [4], 200 nM.

The record behind these values is patent US20260274955A1 (JANUX THERAPEUTICS, published 2026).
